Data taken from PMC7803729.

Biological target: CT-P59 monoclonal antibody (fully human IgG) (human)
Experiment: BLI

Chain of CT-P59 monoclonal antibody (fully human IgG) (human) (heavy, as listed by the source, chain 1 of 2): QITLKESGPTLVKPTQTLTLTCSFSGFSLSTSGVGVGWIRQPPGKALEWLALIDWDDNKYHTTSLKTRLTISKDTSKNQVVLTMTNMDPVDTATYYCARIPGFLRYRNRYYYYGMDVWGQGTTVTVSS
Chain of CT-P59 monoclonal antibody (fully human IgG) (human) (light, as listed by the source, chain 2 of 2): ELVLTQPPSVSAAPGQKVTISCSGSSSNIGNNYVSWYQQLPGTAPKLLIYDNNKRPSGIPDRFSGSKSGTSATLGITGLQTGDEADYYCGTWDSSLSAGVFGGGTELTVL

“SARS-CoV-2 RBD K458R (commercial, Sino Biological) (from UniProt P0DTC2) (domain or fragment)” and “SARS-CoV-2 RBD N354D (commercial, Sino Biological) (from UniProt P0DTC2) (domain or fragment)” are within 1.5-fold of each other in Kd: 0.236 nM for the first, 0.294 nM for the second.

“SARS-CoV-2 RBD V367F (commercial, Sino Biological) (from UniProt P0DTC2) (domain or fragment)” and “SARS-CoV-2 RBD W436R (commercial, Sino Biological) (from UniProt P0DTC2) (domain or fragment)” are within 1.5-fold of each other in Kd: 0.292 nM for the first, 0.221 nM for the second.

“SARS-CoV-2 RBD K458R (commercial, Sino Biological) (from UniProt P0DTC2) (domain or fragment)” and “SARS-CoV-2 RBD N354D (commercial, Sino Biological) (from UniProt P0DTC2) (domain or fragment)” are within 1.5-fold of each other in koff: 0.000246 s⁻¹ for the first, 0.000253 s⁻¹ for the second.

“SARS-CoV-2 RBD V367F (commercial, Sino Biological) (from UniProt P0DTC2) (domain or fragment)” and “SARS-CoV-2 RBD W436R (commercial, Sino Biological) (from UniProt P0DTC2) (domain or fragment)” are within 1.5-fold of each other in koff: 0.000265 s⁻¹ for the first, 0.00018 s⁻¹ for the second.

“SARS-CoV-2 RBD K458R (commercial, Sino Biological) (from UniProt P0DTC2) (domain or fragment)” and “SARS-CoV-2 RBD N354D (commercial, Sino Biological) (from UniProt P0DTC2) (domain or fragment)” are within 1.5-fold of each other in kon: 1.04e+06 M⁻¹ s⁻¹ for the first, 861000 M⁻¹ s⁻¹ for the second.

“SARS-CoV-2 RBD V367F (commercial, Sino Biological) (from UniProt P0DTC2) (domain or fragment)” and “SARS-CoV-2 RBD W436R (commercial, Sino Biological) (from UniProt P0DTC2) (domain or fragment)” are within 1.5-fold of each other in kon: 907000 M⁻¹ s⁻¹ for the first, 816000 M⁻¹ s⁻¹ for the second.
